Results as given in patent US10500249B2, “Compositions and methods for preventing or treating diseases, conditions, or processes characterized by aberrant fibroblast proliferation and extracellular matrix deposition” (MOERAE MATRIX, INC., priority 2014, dated 2019).

Key:
Test in all cases: Kinase Profiling Assay
Type in all cases: biochemical
Settings in all cases: 100 μM
[1] = target: T1, Hck (h) activated (Homo sapiens, UniProt P08631)
T1 construct: purchased Millipore
Procedure, shortened: (§1)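 Activity remaining relative to an uninhibited control was determined by scintillation counting of labeled substrate bound to a negatively charged filter. Radiolabeled phosphate came from ATP; the substrate carried positive charge. Duplicate measurements, within a 266-kinase human panel.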

[2] = target: T2, p70S6K (h) (Homo sapiens, UniProt P23443)
T2 construct: purchased Millipore
Procedure, shortened: as §1

[3] = target: T3, PDGFRβ (h) (Homo sapiens, UniProt P09619)
T3 construct: purchased Millipore
Procedure, shortened: as §1

[4] = target: T4, ULK3 (h) (Homo sapiens, UniProt Q6PHR2)
T4 sequence (Q6PHR2 1-472): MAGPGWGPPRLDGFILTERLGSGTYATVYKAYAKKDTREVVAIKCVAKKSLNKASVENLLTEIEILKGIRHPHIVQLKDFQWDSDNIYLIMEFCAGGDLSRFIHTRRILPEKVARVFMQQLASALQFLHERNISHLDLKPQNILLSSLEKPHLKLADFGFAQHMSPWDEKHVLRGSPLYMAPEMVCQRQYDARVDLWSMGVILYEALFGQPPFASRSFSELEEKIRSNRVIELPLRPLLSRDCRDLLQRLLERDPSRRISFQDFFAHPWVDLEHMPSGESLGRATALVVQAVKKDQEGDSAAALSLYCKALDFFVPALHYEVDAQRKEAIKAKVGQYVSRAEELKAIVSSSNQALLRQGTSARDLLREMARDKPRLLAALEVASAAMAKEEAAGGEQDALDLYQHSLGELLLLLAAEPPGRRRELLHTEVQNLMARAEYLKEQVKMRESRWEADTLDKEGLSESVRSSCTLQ
Procedure, shortened: as §1

[5] = target: T5, Bmx (h) (Homo sapiens, UniProt P51813)
T5 sequence (P51813 1-675): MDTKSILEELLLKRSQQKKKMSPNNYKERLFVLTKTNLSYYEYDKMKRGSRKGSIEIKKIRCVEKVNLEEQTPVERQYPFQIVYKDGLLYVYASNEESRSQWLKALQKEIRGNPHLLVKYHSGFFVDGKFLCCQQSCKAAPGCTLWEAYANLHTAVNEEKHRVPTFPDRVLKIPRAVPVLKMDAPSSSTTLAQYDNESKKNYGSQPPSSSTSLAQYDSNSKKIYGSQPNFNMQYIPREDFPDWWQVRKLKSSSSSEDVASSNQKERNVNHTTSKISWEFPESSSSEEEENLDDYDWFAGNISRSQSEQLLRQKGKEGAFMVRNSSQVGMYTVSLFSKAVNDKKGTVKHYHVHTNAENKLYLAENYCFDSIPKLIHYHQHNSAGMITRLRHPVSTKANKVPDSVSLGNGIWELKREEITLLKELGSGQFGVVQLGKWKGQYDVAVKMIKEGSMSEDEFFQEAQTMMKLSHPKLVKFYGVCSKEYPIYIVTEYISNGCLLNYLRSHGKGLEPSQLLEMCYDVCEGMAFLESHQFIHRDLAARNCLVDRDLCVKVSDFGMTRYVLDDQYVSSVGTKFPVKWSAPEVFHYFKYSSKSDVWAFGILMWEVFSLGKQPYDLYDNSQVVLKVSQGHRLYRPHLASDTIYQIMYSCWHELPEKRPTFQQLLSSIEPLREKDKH
Procedure, shortened: as §1

[6] = target: KDR (h) (Homo sapiens, UniProt P35968)
Procedure, shortened: as §1

[7] = target: T6, Txk (h) (Homo sapiens, UniProt P42681)
T6 sequence (P42681 1-527): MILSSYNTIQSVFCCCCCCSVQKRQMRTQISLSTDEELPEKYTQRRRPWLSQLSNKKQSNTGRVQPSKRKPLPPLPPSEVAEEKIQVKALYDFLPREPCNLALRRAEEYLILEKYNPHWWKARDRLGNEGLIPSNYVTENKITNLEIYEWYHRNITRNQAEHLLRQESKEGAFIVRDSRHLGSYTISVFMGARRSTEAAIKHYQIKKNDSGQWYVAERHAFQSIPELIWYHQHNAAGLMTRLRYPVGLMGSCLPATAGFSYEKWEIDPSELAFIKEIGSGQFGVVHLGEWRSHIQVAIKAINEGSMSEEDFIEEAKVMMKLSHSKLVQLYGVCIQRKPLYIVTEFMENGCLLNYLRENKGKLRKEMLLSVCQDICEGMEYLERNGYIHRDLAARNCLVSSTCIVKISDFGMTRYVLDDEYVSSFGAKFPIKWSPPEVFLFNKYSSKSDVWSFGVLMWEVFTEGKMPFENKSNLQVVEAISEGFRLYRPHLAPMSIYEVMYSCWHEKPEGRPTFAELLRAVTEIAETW
Procedure, shortened: as §1

[8] = target: Ros (h) (Homo sapiens, UniProt P08922)
Procedure, shortened: as §1

[9] = target: Rsk1 (h) (Homo sapiens, UniProt Q15418)
Procedure, shortened: as §1

[10] = target: T7, cKit(V654A) (h) (Homo sapiens, UniProt P10721, V654A)
T7 construct: purchased Millipore
Procedure, shortened: as §1

Sequence of Ros (h) (P08922 28-2347): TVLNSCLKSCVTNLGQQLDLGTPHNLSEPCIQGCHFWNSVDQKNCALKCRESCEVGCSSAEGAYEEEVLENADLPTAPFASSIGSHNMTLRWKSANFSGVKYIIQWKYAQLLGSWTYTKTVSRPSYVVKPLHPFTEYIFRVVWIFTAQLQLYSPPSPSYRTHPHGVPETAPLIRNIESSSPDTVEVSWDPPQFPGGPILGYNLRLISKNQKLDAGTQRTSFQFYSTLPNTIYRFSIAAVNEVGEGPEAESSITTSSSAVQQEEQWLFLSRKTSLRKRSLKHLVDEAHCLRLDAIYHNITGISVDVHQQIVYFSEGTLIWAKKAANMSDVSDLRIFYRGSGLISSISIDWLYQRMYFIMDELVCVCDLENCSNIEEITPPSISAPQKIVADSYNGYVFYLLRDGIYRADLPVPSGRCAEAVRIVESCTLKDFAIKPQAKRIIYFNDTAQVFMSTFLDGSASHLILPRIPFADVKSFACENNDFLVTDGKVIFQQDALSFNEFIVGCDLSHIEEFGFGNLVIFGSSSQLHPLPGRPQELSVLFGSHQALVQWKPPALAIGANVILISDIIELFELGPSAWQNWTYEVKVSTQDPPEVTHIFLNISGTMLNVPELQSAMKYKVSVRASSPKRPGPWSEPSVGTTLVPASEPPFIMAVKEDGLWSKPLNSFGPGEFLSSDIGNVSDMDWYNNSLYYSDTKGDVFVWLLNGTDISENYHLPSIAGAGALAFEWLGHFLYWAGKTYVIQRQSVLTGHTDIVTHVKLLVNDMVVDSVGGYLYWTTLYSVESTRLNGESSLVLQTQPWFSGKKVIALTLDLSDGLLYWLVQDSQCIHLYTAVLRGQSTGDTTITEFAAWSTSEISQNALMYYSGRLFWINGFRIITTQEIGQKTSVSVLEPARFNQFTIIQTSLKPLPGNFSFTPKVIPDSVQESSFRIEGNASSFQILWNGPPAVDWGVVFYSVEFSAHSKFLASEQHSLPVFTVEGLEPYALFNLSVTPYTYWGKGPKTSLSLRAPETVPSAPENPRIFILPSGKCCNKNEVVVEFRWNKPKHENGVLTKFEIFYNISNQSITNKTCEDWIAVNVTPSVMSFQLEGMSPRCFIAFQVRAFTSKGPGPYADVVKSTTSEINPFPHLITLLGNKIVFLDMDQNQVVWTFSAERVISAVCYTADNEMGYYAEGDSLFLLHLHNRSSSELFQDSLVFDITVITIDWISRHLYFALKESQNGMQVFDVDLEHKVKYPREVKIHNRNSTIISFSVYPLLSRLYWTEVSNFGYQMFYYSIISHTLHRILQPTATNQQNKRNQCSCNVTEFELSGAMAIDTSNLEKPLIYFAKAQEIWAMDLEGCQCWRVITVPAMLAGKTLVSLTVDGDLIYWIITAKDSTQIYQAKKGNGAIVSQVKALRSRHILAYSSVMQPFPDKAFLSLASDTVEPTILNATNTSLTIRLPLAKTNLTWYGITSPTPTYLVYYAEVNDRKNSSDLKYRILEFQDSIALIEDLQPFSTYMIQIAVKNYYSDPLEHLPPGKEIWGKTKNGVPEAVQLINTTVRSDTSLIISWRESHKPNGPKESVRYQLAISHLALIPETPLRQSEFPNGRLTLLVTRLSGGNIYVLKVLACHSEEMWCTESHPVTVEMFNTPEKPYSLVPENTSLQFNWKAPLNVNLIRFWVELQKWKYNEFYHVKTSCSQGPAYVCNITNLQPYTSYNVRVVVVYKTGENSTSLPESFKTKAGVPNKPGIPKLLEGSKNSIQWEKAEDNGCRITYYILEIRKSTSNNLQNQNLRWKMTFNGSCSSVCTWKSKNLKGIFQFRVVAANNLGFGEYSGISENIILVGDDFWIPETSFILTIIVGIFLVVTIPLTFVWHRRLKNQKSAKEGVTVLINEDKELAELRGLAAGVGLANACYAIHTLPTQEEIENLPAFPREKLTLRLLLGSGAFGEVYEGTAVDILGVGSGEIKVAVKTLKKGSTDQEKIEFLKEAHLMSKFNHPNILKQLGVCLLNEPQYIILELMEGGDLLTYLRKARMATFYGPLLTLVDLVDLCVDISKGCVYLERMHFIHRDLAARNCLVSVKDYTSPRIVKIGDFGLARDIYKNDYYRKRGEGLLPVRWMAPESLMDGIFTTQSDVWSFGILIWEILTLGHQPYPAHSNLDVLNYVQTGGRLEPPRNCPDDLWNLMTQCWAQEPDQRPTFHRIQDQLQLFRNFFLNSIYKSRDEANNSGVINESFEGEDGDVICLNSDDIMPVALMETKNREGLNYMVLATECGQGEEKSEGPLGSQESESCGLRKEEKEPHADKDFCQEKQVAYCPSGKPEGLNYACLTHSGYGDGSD
Sequence of Rsk1 (h) (Q15418 whole entry): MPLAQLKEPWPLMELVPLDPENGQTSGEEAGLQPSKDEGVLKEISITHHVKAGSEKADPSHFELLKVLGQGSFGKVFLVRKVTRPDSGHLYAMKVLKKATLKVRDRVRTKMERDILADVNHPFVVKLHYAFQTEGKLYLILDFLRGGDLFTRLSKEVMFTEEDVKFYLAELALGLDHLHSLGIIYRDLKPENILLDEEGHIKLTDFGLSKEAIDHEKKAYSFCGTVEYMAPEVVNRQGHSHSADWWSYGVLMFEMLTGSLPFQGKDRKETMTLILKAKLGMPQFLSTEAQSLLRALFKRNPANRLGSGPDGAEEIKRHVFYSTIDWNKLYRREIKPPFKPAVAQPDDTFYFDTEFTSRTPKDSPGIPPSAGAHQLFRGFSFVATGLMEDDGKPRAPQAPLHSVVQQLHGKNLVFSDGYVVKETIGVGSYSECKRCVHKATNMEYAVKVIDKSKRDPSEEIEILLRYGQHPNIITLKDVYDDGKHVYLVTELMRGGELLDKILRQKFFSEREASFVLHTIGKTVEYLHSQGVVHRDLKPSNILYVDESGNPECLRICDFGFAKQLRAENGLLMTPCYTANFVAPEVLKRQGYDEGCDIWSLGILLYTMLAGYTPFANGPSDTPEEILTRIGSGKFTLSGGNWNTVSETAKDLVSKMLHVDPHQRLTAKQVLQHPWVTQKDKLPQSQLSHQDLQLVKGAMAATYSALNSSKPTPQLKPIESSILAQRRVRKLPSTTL
T2 sequence (P23443 whole entry): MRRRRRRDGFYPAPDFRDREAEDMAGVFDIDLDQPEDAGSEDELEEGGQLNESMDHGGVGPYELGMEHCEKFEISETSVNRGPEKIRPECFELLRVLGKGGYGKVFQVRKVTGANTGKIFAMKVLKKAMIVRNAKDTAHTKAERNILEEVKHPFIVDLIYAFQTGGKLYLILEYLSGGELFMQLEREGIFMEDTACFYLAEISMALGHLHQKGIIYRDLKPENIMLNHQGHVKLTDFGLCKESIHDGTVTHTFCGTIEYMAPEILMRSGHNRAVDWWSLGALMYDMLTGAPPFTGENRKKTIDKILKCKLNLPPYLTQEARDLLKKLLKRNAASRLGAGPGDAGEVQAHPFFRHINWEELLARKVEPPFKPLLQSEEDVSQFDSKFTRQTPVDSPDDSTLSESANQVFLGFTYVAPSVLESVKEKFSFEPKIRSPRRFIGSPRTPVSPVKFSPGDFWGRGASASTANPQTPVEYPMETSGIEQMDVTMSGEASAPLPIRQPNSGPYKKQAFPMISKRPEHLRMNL
T3 sequence (P09619 33-1106): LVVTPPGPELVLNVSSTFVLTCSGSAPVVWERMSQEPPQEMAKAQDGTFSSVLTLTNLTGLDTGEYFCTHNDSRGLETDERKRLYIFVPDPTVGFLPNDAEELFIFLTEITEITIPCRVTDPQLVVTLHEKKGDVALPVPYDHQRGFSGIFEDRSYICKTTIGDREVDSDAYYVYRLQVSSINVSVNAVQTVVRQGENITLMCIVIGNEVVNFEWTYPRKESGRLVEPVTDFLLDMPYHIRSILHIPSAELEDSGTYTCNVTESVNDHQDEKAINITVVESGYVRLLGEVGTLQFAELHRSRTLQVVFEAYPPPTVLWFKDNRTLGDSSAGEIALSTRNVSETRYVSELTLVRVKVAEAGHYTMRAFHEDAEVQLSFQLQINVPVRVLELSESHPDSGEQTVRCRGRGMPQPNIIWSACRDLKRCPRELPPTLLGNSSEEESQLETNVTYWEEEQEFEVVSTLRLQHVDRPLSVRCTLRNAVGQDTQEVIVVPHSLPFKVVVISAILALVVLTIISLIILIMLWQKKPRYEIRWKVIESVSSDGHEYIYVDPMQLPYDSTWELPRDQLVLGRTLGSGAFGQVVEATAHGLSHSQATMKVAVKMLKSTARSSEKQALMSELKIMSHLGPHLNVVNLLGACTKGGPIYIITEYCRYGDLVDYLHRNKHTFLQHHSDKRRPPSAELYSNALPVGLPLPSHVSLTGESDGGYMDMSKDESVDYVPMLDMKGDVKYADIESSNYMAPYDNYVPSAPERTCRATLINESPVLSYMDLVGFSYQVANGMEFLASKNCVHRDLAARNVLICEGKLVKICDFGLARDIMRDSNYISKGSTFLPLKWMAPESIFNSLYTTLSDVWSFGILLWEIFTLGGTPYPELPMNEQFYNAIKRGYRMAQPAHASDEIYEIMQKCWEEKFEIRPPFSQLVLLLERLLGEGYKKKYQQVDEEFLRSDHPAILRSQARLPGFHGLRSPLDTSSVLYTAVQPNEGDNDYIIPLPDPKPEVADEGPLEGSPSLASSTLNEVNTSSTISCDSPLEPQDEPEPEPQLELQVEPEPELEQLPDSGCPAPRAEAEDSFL

Sequence	% activity [1] [%]	% activity [2] [%]	% activity [3] [%]	% activity [4] [%]	% activity [5] [%]	% activity [6] [%]	% activity [7] [%]	% activity [8] [%]	% activity [9] [%]	% activity [10] [%]
KAFAKLAARLYRKALARQLGVAA [MMI-0400]	81	33	53	147	26	94	37	99	54	150
YARAAARQARAKALNRQLGVA (Mammalian) [MMI-0200]	100	84	137	164	76	110	98	86		
HRRIKAWLKKIKALARQLGVAA (Mammalian) [MMI-0500]	67	3	40	177	45	15	10	150	34	223
FAKLAARLYRKALARQLGVAA [MMI-0300]	82	35	81	167		101	48	95	46	134
